pKd: −log10 of the molar value.
Legend:
[1] = target: histone H3 peptide, K9me2, C-terminal biotin (human); assay: SPR; biotinylated peptides immobilised on streptavidin chip SA, Biacore T200, 25 °C, 10 mM HEPES pH 7.4, 150 mM NaCl; G9a SET-domain 1.5-fold dilutions from 20 or 10 µM; 1:1 binding model, KD calculated from kon and koff
[2] = target: human ATF7IP peptide, K16me2, C-terminal biotin (human); assay: as above
[3] = target: human ATF7IP peptide, unmodified (K16me0), C-terminal biotin (human); assay: as above
[4] = target: histone H3 peptide, K9me1, C-terminal biotin (human); assay: as above
[5] = target: histone H3 peptide, unmodified (K9me0), C-terminal biotin (human); assay: as above
[6] = target: human ATF7IP peptide, K16me1, C-terminal biotin (human); assay: as above
[7] = target: human ATF7IP peptide, K16me3, C-terminal biotin (human); assay: SPR; same chip and buffer, 25 °C; kinetics not fitted, KD by steady-state affinity analysis; for all tri-methylated peptides and LIG1 K126me2 G9a SET-domain in twofold dilutions from 200 µM

human G9a SET-domain (residues 913–1193) (from UniProt Q96KQ7 913-1193) (domain or fragment)
pKd [1]: 6.46 | pKd [2]: 7.42 | pKd [3]: 6.74 | pKd [4]: 6.37 | pKd [5]: 7.05 | pKd [6]: 7.37 | pKd [7]: < 6.00

— PMC6172828
